Measurements: US7229788B1, “Protease susceptibility II” (The University of Sydney, priority 1998, dated 2007)

T1: bovine trypsin (Bos taurus, UniProt P00760)
T1 construct: purchased Boehringer-Mannheim
T1 sequence (P00760 24-246): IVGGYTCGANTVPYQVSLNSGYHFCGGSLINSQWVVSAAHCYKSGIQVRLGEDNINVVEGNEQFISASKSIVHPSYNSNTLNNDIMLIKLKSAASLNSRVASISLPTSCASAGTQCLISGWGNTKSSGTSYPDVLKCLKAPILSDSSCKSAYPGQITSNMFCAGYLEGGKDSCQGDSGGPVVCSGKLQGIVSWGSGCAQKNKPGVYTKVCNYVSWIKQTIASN

T2: human leukocyte elastase (HLE) (Homo sapiens, UniProt P08246)
T2 construct: purchased Sigma
T2 sequence (P08246 30-267): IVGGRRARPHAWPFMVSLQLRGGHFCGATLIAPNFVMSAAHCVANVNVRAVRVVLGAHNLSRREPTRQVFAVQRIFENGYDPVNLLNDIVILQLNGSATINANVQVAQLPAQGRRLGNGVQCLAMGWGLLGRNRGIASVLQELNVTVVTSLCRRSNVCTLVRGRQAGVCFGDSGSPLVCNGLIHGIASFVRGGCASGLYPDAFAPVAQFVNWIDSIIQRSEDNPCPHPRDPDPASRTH

T3: Gelatinase A (72 kDa gelatinase) (Homo sapiens, UniProt P08253)
T3 construct: purchased Boehringer Mannheim Roche Diagnostics
T3 sequence (P08253 110-660): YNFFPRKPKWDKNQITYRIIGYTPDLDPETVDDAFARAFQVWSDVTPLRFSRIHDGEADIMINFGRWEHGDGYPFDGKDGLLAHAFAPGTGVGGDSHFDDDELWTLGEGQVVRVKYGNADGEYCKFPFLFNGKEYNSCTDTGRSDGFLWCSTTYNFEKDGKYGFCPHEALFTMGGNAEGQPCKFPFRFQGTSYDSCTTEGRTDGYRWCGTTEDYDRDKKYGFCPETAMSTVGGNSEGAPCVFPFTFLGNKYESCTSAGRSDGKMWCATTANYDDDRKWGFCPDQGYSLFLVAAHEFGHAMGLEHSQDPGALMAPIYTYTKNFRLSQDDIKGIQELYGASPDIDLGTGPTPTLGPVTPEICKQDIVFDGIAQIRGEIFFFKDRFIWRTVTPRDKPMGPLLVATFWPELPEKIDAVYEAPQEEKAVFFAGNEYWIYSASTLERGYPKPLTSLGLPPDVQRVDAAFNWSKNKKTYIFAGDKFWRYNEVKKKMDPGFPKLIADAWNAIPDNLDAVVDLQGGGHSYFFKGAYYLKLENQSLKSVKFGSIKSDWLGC

B1: SHELδ26A: derived from SHEL by removing sequence corresponding to exon 26A; SEQ ID NO:5; reduced tropoelastin derivative (protein, listed as Homo sapiens)
chain: GGVPGAIPGGVPGGVFYPGAGLGALGGGALGPGGKPLKPVPGGLAGAGLGAGLGAFPAVTFPGALVPGGVADAAAAYKAAKAGAGLGGVPGVGGLGVSAGAVVPQPGAGVKPGKVPGVGLPGVYPGGVLPGARFPGVGVLPGVPTGAGVKPKAPGVGGAFAGIPGVGPFGGPQPGVPLGYPIKAPKLPGGYGLPYTTGKLPYGYGPGGVAGAAGKAGYPTGTGVGPQAAAAAAAKAAAKFGAGAAGVLPGVGGAGVPGVPGAIPGIGGIAGVGTPAAAAAAAAAAKAAKYGAAAGLVPGGPGFGPGVVGVPGAGVPGVGVPGAGIPVVPGAGIPGAAVPGVVSPEAAAKAAAKAAKYGARPGVGVGGIPTYGVGAGGFPGFGVGVGGIPGVAGVPSVGGVPGVGGVPGVGISPEAQAAAAAKAAKYGVGTPAAAAAKAAAKAAQFGLVPGVGVAPGVGVAPGVGVAPGVGLAPGVGVAPGVGVAPGVGVAPGIGPGGVAAAAKSAAKVAAKAQLRAAAGLGAGIPGLGVGVGVPGLGVGAGVPGLGVGAGVPGFGAVPGALAAAKAAKYGAAVPGVLGGLGALGGVGIPGGVVGAGPAAAAAAAKAAAKAAQFGLVGAAGLGGLGVGGLGVPGVGGLGGIPPAAAAKAAKYGAAGLGGVLGGAGQFPLGGVAARPGFGLSPIFPGGACLGKACGRKRK
B2: GST-SHEL: fusion of glutathione S-transferase (GST) with SHEL (protein)
chain: GGVPGAIPGGVPGGVFYPGAGLGALGGGALGPGGKPLKPVPGGLAGAGLGAGLGAFPAVTFPGALVPGGVADAAAAYKAAKAGAGLGGVPGVGGLGVSAGAVVPQPGAGVKPGKVPGVGLPGVYPGGVLPGARFPGVGVLPGVPTGAGVKPKAPGVGGAFAGIPGVGPFGGPQPGVPLGYPIKAPKLPGGYGLPYTTGKLPYGYGPGGVAGAAGKAGYPTGTGVGPQAAAAAAAKAAAKFGAGAAGVLPGVGGAGVPGVPGAIPGIGGIAGVGTPAAAAAAAAAAKAAKYGAAAGLVPGGPGFGPGVVGVPGAGVPGVGVPGAGIPVVPGAGIPGAAVPGVVSPEAAAKAAAKAAKYGARPGVGVGGIPTYGVGAGGFPGFGVGVGGIPGVAGVPSVGGVPGVGGVPGVGISPEAQAAAAAKAAKYGVGTPAAAAAKAAAKAAQFGLVPGVGVAPGVGVAPGVGVAPGVGLAPGVGVAPGVGVAPGVGVAPGIGPGGVAAAAKSAAKVAAKAQLRAAAGLGAGIPGLGVGVGVPGLGVGAGVPGLGVGAGVPGFGAGADEGVRRSLSPELREGDPSSSQHLPSTPSSPRVPGALAAAKAAKYGAAVPGVLGGLGALGGVGIPGGVVGAGPAAAAAAAKAAAKAAQFGLVGAAGLGGLGVGGLGVPGVGGLGGIPPAAAAKAAKYGAAGLGGVLGGAGQFPLGGVAARPGFGLSPIFPGGACLGKACGRKRK
modifications: left off: a dimerising Fc or GST
B3: SHEL: recombinant human tropoelastin splice form, amino acid sequence SEQ ID NO:4, obtained by the method of WO94/14958 (protein, listed as Homo sapiens)
chain: B2 chain

Columns and labels:
Assay type in all cases: biochemical
human thrombin = target: T4, human thrombin (Homo sapiens, UniProt P00734); test: Thrombin digestion of SHEL, SDS-PAGE; conditions: for protection from degradation by thrombin in the coacervated state: coacervated at 37° C., 150 mM NaCl
T4 construct: purchased Sigma
Protocol: (§1) A range of enzyme concentrations was originally used to determine the optimal amount for subsequent experiments. Thrombin (0.01–1U), human plasma kallikrein (3×10^−4 to 3×10^−3U), human plasmin (7×10^−5 to 4×10^−7U), bovine trypsin (5×10^−4 to 4×10^−3U), and human leukocyte elastase (1.6×10^−4 to 3.2×10^−3U) were added to 10 μg SHEL or SHELδ26A in 50 mM sodium phosphate buffer pH 7.8 in a total volume of 20 μl. All reactions were performed at 37° C. for one hour. Gelatinase A and B were activated using 0.8 mM APMA at 37° C. for 30 minutes (gelatinase A) or 37° C. for 45 minutes (gelatinase B). Gelatinase A (4×10^−3−4×10^−2) and gelatinase B (2×10^−5−1×10^−4) was added to […] SHEL or SHELd26A in a total volume of […]. Gelatinase B reactions were performed in the presence of 0.75 mM APMA. The degradation profile was analysed by 8, 10 or 12% SDS-PAGE.
(§2) Both SHEL and SHELδ26A were used. Each reaction was analysed by 10% SDS-PAGE.
(§3) Extent of proteolysis was monitored by SDS-PAGE.
Cleavage of GST-SHEL bound to glutathione agarose was performed by washing and resuspending beads in 1× thrombin cleavage buffer (50 mM Tris-HCl pH8.0, 150 mM NaCl, 2.5 mM CaCl2) and adding human thrombin (Sigma) from 0.1 to 1% (w/v) thrombin:fusion protein at 25° C. for one hour (Smith and Johnston 1988). Soluble bacterial lysates used as substrate were incubated similarly with 1× thrombin cleavage buffer, added from a 10× stock. GST (26 kDa) was evident on beads by SDS-PAGE but SHEL could not be identified in the supernatant in numerous experiments. To determine whether thrombin was degrading SHEL, the entire cell lysate was subject to cleavage with increasing concentrations of thrombin. […] GST was clearly present. However, with 0.01U thrombin a band at approximately 64 kDa could be discerned which may represent SHEL although this was not nearly as intense as the GST band.

human plasma kallikrein = target: T5, human plasma kallikrein (Homo sapiens, UniProt P03952); test: Kallikrein digestion of SHEL, SDS-PAGE; conditions: for degradation by human plasma kallikrein: 50 mM sodium phosphate pH 7.8, 37° C.; for protection from degradation by kallikrein in the coacervated state: coacervated at 37° C., 150 mM NaCl
T5 construct: purchased Sigma
Protocol: as §1, §2, §3

human plasmin = target: T6, human plasmin (Homo sapiens, UniProt P00747); test: Plasmin digestion of SHEL, SDS-PAGE; conditions: for protection from degradation by plasmin in the coacervated state: coacervated at 37° C., 150 mM NaCl
T6 construct: purchased Sigma
Protocol: as §1, §2, §3

protease = test: Protease resistance of SHELδ26A compared with SHEL
Protocol: as §1

bovine trypsin = target: T1, bovine trypsin; test: Trypsin digestion of SHEL, SDS-PAGE
Protocol: as §1, §2, §3

[1] = target: T2, human leukocyte elastase (HLE); test: HLE digestion of SHEL, SDS-PAGE
Protocol: as §1, §2, §3

[2] = target: T3, Gelatinase A (72 kDa gelatinase); test: Gelatinase A digestion of SHEL; conditions: SDS-PAGE and zymogram analysis
Protocol: as §1

[3] = target: T7, gelatinase B (92 kDa gelatinase) (Homo sapiens, UniProt P14780); test: Gelatinase B digestion of SHEL; conditions: SDS-PAGE and zymogram analysis
T7 construct: purchased Boehringer Mannheim Roche Diagnostics
Protocol: as §1

[4] = 50 mM sodium phosphate pH 7.8, 37° C.
[5] = coacervated at 37° C., 150 mM NaCl

T6 sequence (P00747 97-810): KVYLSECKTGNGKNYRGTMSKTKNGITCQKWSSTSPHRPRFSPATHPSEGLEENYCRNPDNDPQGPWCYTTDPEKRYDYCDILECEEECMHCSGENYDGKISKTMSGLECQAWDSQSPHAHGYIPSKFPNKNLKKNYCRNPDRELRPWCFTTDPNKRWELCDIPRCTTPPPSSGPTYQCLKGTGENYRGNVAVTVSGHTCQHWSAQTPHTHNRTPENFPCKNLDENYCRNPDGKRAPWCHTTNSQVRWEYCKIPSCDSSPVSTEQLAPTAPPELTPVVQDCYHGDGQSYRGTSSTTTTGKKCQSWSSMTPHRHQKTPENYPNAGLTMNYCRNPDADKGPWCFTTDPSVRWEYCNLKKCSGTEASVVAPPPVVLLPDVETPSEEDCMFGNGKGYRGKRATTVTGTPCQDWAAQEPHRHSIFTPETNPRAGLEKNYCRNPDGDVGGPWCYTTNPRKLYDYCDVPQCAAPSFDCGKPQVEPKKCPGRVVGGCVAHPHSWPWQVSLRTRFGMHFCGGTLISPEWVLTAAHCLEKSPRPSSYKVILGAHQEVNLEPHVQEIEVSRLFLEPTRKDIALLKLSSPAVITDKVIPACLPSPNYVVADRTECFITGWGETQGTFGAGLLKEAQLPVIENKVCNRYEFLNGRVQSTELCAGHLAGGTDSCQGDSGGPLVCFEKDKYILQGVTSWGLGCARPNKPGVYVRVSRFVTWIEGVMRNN
T5 sequence (P03952 20-638): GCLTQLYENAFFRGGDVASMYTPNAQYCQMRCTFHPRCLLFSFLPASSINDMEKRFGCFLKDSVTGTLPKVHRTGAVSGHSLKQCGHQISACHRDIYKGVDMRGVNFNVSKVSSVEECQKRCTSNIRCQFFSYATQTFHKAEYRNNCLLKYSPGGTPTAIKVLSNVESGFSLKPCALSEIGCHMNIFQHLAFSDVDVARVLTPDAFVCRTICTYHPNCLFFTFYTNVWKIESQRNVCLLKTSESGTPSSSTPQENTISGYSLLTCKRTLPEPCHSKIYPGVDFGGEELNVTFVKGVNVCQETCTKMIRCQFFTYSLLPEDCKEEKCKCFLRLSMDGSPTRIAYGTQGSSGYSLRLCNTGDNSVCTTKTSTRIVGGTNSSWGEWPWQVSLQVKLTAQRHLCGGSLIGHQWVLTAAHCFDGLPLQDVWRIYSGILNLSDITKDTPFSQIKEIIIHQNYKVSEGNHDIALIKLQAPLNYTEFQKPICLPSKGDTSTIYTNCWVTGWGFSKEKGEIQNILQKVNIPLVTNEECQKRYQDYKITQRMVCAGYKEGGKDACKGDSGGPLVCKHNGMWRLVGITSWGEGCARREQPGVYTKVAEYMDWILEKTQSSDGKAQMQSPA
T7 sequence (P14780 107-707 limits assumed, species assumed): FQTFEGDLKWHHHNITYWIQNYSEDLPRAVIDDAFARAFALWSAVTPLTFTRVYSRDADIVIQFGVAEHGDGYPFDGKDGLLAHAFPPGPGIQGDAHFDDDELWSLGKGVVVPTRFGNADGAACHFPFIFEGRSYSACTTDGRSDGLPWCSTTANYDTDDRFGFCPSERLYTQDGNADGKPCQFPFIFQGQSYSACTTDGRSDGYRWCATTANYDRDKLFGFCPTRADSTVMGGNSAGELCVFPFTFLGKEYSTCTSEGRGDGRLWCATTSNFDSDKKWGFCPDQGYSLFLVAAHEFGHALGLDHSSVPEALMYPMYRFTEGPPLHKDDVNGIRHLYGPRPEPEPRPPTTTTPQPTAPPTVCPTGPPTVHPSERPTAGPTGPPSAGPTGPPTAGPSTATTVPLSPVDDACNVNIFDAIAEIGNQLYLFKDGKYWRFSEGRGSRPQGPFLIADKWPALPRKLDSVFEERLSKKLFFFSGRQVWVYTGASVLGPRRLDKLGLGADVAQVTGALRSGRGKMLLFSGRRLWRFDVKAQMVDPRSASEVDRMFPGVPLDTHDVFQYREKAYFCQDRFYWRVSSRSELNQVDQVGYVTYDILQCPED

| Molecule | protection from degradation by thrombin in the coacervated state (human thrombin) | degradation by human plasma kallikrein (human plasma kallikrein) | protection from degradation by kallikrein in the coacervated state (human plasma kallikrein) | protection from degradation by plasmin in the coacervated state (human plasmin) | protease resistance relative to SHEL (protease) | cleavage of fusion protein by thrombin (human thrombin; thrombin cleavage buffer, 25° C., one hour) | degradation by thrombin (human thrombin; 50 mM sodium phosphate pH 7.8, 37° C., one hour) | degradation by bovine trypsin (bovine trypsin; [4]) | protection from degradation by trypsin in the coacervated state (bovine trypsin; [5]) | degradation by human plasmin (human plasmin; [4]) | degradation by human leukocyte elastase [1, 4] | protection from degradation by HLE in the coacervated state [1, 5] | digestion by gelatinase A [2] | digestion by gelatinase B [3] |
| --- | --- | --- | --- | --- | --- | --- | --- | --- | --- | --- | --- | --- | --- | --- |
| B1 | significant protection from proteolysis | highly specific and limited proteolysis | significant protection from proteolysis | No protection was seen | higher protease resistance than SHEL | – | – | – | – | – | – | – | – | – |
| B2 | – | – | – | – | – | extensively and in a reproducible manner | – | – | – | – | – | – | – | – |
| B3 | significantly protected from degradation | specific and reproducible degradation | significantly protected from degradation | not by plasmin | – | – | easily degraded | complete degradation with prolonged treatment | some inhibition | at high concentration extensive degradation occurred | extensive degradation if left for extended period | some inhibition | digested | digested |
